Measurements from the nanobody polyreactivity screen of Harvey et al. (2022).

Assay: yeast display, Sf9 membrane polyspecificity reagent, FACS + sequencing; frameworks hold sequencing errors
In short: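 Using colony PCR, genes from sorted yeast display clones were amplified, then sequenced on MiSeq at 2 × 250 and filtered by CDR length. The clones had been stained with 10% biotinylated, detergent-solubilized Sf9 membrane reagent for 1 hour at 4 °C and sorted by FACS into low and high (top ~1%) gates on anti-HA and streptavidin fluorescence. Polyreactivity labels come from the gate of origin.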

Sequence | polyreactivity (PSR sort gate)
QVQLVESGGGLVQAGGSLCLSGAASGITFRFYAMGWYRQAPGKERELVAAISWSGGRTYYADSVKWRFTISRDNAKNTVYLQMNSLKPEDTAVYYCAAVASSVPGYDYWGQGTQVTVSS | low polyreactivity
QVQLVESGGGLVQAGGSLGLNCAASGFTFRVNAMGLYSQAPGKEREFVAAITASGGSTYYADSVKGRFTISRDNAKNTVYLLMNSLKPVDTAVYYCAADWWIYWYPDTGDYWGQRTQVTVSS | high polyreactivity
QVQLVESGGGLVQAGGSLGLSCAASGRTIDYYALGWYRQAPGKERELVAAITWDGSTYYADSVKGRFTISRDNAKITVYLQMISLKPEVTAVYYCAADFYWYLDLYDFWGQGTQVTVSS | high polyreactivity
QVQLVESGGGLVQAGGSLGLSCAASGSTFGFYTMGWYRQAPGKERELVATISYSGGDTYYEDSVKGRFTISRDNAKNTVYFQMNSLKPEYTAVYYCAADLGDYVTTYSWLDSWGQGTQVTVSS | low polyreactivity
QVQLVESGGGLVQAGGSLGLTCAASGFIFLDYTMVWYRQAPGIERELVATINASDGSTYYADSVKGRFTISRDNAKKTVYLQMNSLKPEDTAVYYCNTKVISRTSERRGNGFTRYDYWGQGTQVTVSS | low polyreactivity
QVQLVESGGGLVQAGGSLLLICAASGSTFPYNAMGWYRQAPGKQRELVASITSRGGSTYYADSVKGRFTISRDNAKNTVYLQMNSLKPQDTAVYYCATPGDTYGWTRRRYYYWGQGTQVTVSS | high polyreactivity
QVQLVESGGGLVQAGGSLLLSCAASGFIFVSYAMGWYRQAPGKERELVAAIDRIGGITYYADSVKGRFTISRDNAKNTVYLQMNSLKREDTAVYYCAAAARFATVRVGREYYWGQGTQVTVSS | low polyreactivity
QVQLVESGGGLVQAGGSLLLSCAASGFILYSYAMGWYRQAPGTEREFVSVISRGGGRTYYADSVKGRFTISRDNAKNTVYLQMNCLKPDDTAVYYCAATPSNVYAYEYWGQGTQVTVSS | low polyreactivity
QVQLVESGGGLVQAGGSLLLSCAASGFTFLWYDMGWYRQSPGKERELVAAIDASDGSTYYADSVKGRFTISRDNAKNTVYLQMNSLKPEDTAVYYCAVAAGYFGKWTYYYWGQGTQVTVSS | high polyreactivity
QVQLVESGGGLVQAGGSLLLSCAASGIIFGTNALGWYRQAPGKERELVAAITWSGGNTTYADSVKGRFTISRDNAKNTVYLQMNSLKPEDTAVYYCAADFTRAGDYDYWGQGTQVTVSS | low polyreactivity
QVQLVESGGGLVQAGGSLLLSCAASGLIFSGYAMGWYRQAPGKERELVAAISRTVGTTYYADSVKGRFTISRDNGKNPVYLQMNSLKPEDTAVYYCAARGRATLYDYWGQGTQVTVSS | high polyreactivity
QVQLVESGGGLVQAGGSLLLSCAASGLIFYPYAMGWYRQAPGKEREFVAAITWSGGSTRYADSVKGRFTISRDNAKNTVYLQMNSLKPEDTAVYYCAARYIWWYDYTYTGLDYWGQGTQVTVSS | high polyreactivity
QVQLVESGGGLVQAGGSLLLSCAASGNTFYKYTMGWYRQAPGKERELVAVISSSSGSTYYADSVKGRFTISRDNAKNTVYLQMNSLKPEYTAVYYCKKRGWWDLRHYYWGQGTQVTVSS | low polyreactivity
QVQLVESGGGLVQAGGSLLLSCAASGRIFDVYALGWYRQAPGTEREWVAAITWRVGSTYYADSVKGRFTISRDTAKNTVYLQMNSLKPEDTAVYYCAVDSFLVYSAVRPYDYWGQGTQVTVSS | low polyreactivity
QVQLVESGGGLVQAGGSLLLSCAASGRIFWHNTMGWYRQAPGKERELVAGISVSGGSTYYADSVKGRFTISRDNAMNTVYLKMNSLKPEDTAVYYCAARKVTSWKAHFRFDYWGQGTQVTVSS | low polyreactivity
QVQLVESGGGLVQAGGSLLLSCAASGRTFSRNAMGWYRQAPGKERELVASIRSGGTTNYADSVKGRFTISRDNAKNTVYLQMNSLKPEVTAVYYCNAGDTFLDPCSQYLFDYWGQGTLVTVSS | low polyreactivity

Sequence | polyreactivity (PSR sort gate)
QVQLVESGGGLVQAGGSLLLSCAASGRTFYVYAMGWYRQAPGKERELVAAITSGGRTYYADSVKGRFTISRDNAKNTVYLQMNRLKPEDTAVYYCNARRTSRSYSFNYWGQGTQVTVSS | high polyreactivity
QVQLVESGGGLVQAGGSLLLSCAASGSIFFYAMGSYRQAPGKERELVADITYTGGSKYADSVKGRFTISRDNAKNTVYLQMNSLKPEDTAVYYCAKLDGGLFDYWGQGTQVTVSS | low polyreactivity
QVQLVESGGGLVQAGGSLLLSCAASGSIFSIYAMGWYRQAPGKERELVAAISSSGRTYYADSVKGRFTISRDNAKNTVYLQMNSLKPEDTAVYSCNRVREGKHYYYWGQGTQVTVSS | high polyreactivity
QVQLVESGGGLVQAGGSLLLSCAASGSIFVRNTMGWYRQAPGKERELVAAITSSGGTTYYADSVKGRFTISRDNAKNTVYLQMNSLKPEDTAVYYCAARYGYWGQGTQVTVSS | high polyreactivity
QVQLVESGGGLVQAGGSLLLSCAASGSIYVNNAMGWYRQAPGKERELVAAISRSGGSTYYADSVKGRFTISRDSAKKTVYLQMNSLKPEDTAVYYCATVHRSSTPPEFNYSGQGTQVTVSS | high polyreactivity
QVQLVESGGGLVQAGGSLLLSCAASGSTFPHYTMGWYSQAPGKEREWVAVISRSGRTYYADSVKGRFTISRDNAKNTVYLQMNSLKPEDTAVYYCAVLVGRLVWSYNHWGQGTQGTVSS | high polyreactivity
QVQLVESGGGLVQAGGSLLLSCAASGSTFSYYGMGWYRQAPVKERELVAAIDYSGDSTYYADSVKGRFTISRDNSKNTVFLQMNSLKPEDTAVYYCAADDYPWNRYEYWGQGTQVTVSS | low polyreactivity
QVQLVESGGGLVQAGGSLLLSSAASGIIFNQYAMGWYRQAPGKERELVATISSGGARTYYADSVKWRFTISRDNAKNTVYLQMNSRKPEDTAVYFCNRRVPYSFYSRGYYYWGQGTQVTVSS | high polyreactivity
QVQLVESGGGLVQAGGSLPLSCAASGGTFYKYAMGWYRQAPGKERELVARISRGGSTYYADSVKGRFTISRDNAKNTVYLQMTSLKPEDTAVYYCAKLWYAVWPIVVQYNYWGQGTQVNVSS | high polyreactivity
QVQLVESGGGLVQAGGSLPLSCAASGRIFVVYAMGWYRQAPGKERDLVAGISWTDGRTYYADSVKGRFTISRDNAKNTVYLLMNSLKPEDTAVYYCNKARTSQYHHTYWRTYGYWGQGTQVTLSS | low polyreactivity
QVQLVESGGGLVQAGGSLPLSCAASGRTFGSYVMRWYRQAPGKERELVATISRRGGTTYYADSVKGRFTISRDNAKNTVYLQMNSLKPEDTAVYYCAAKYFATRYDYWGQGTQVTVSS | high polyreactivity
QVQLVESGGGLVQAGGSLPLSCAASGRTIYRYAMGSYRQAPGKERELDAAIRRSGDSTYYADSVKGRFTISRDIAKKTVYLQMNSLKPEDTAVYYCNAVASGRTYDYWGQGTQVTVSS | high polyreactivity
QVQLVESGGGLVQAGGSLPLSCAASGSIFFFNAMGWYRQATGKEREFVAAITSSSGRTYYADSVKGRFTISRDNANNTVYLQMNSLKPEDSAVYFCAAQVPEDTETVDYWGQGTQVTVSS | low polyreactivity
QVQLVESGGGLVQAGGSLPLSCAASGSIFKPYAMGWYRQAPGKERELVAVISWRGGSTYYADSVKGRFTISRDNAKNTVYLQMNSLKPEDTAVYYCAARRYRYFDGTVPLDYWGQGTQVTVSS | high polyreactivity
QVQLVESGGGLVQAGGSLPLSCAASGSTFGYNAMGWYRQAPGKERELVAAITWTGASTYYADSVKGRFTISRDNAKNTVYLQMNSLKPEDTAVYYCNARFGKRGYSPPYDYWGQGTQVTVSS | low polyreactivity
QVQLVESGGGLVQAGGSLPLSCAASGSTFSYYAMGWYRQAPGKERELVAAITSGGSTYYADSVKGRFTISRDNAKNTVYLQMNSLKPEDTAVYYCNAEPYTSSGGYRAYDFDYWGQGTQVTVSS | low polyreactivity
